Measured values taken from patent US20220145295A1, “ENZYMATIC RNA SYNTHESIS” (President and Fellows of Harvard College, priority 2018, published 2022).

Test system: poly dT-15-mer initiator oligonucleotide
Assay: Initial activity screen of polymerase μ R387K with divalent cations (rate of ssDNA generation)
Assay type: biochemical
Conditions: 200 μM dNTP, 37° C.
Protocol: FIGS. 3A to 3C. […] Denaturing gel electrophoresis analysis of dATP incorporation (FIG. 3B) and rATP incorporation (FIG. 3C) at nucleotide concentrations of 200-50 μM and 5.0-0.62 mM for dATP and rATP, respectively. These reactions were supplemented with 0.25 mM Mn^2+ and Mg^2+. The control reaction consisted of all reaction components except nucleotide. For all reactions, the initiator oligonucleotide was a HPLC-purified poly dT-15-mer.
Human polymerase μ R387K was expressed and purified as described in the materials and methods. Because it was unknown under which reaction conditions polymerase μ R387K functioned optimally, several reaction parameters were initially evaluated. […] Thus, polymerase p R387K, a confirmed DNA/RNA-directed polymerase, is useful for controlled enzymatic RNA synthesis.
Expressed proteins with terminal transferase activity were screened by determining the rate of RNA generation in terms of total RNA concentration and the length/distribution of RNA produced by the protein after incubation with natural rNTPs. […] The length of the RNA produced in these reactions was determined by comparing products to a 100-nt ssDNA ladder (Simplex Biosciences) using a 15% TBE-Urea denaturing gel (Thermo EC6885) following the manufacturer's protocol. […]

B1: polymerase μ R387K: Human polymerase μ with point mutation R387K, expressed and purified; SEQ ID NO: 1 (protein, listed as Homo sapiens)
chain: MLPKRRRARVGSPSGDAASSTPPSTRFPGVAIYLVEPRMGRSRRAFLTGLARSKGFRVLDACSSEATHVVMEETSAEEAVSWQERRMAAAPPGCTPPALLDISWLTESLGAGQPVPVECRHRLEVAGPRKGPLSPAWMPAYACQRPTPLTHHNTGLSEALEILAEAAGFEGSEGRLLTFCRAASVLKALPSPVTTLSQLQGLPHFGEHSSRVVQELLEHGVCEEVERVRRSERYQTMKLFTQIFGVGVKTADRWYREGLRTLDDLREQPQKLTQQQKAGLQHHQDLSTPVLRSDVDALQQVVEEAVGQALPGATVTLTGGFRRGKLQGHDVDFLITHPKEGQEAGLLPRVMCRLQDQGLILYHQHQHSCCESPTRLAQQSHMDAFEKSFCIFRLPQPPGAAVGGSTRPCPSWKAVRVDLVVAPVSQFPFALLGWTGSKLFQRELRRFSRKEKGLWLNSHGLFDPEQKTFFQAASEEDIFRHLGLEYLPPEQRNA
rate of ssDNA generation (0.25 mM Co^2+, worst rate): ~100 RFU/minute | rate of ssDNA generation (combination of Mn^2+ and Mg^2+ at 0.25 mM, highest rate): ~650 RFU/minute
